Measured values taken from article PMC3084279, “Critical Factors Governing the Difference in Antizyme-Binding Affinities between Human Ornithine Decarboxylase and Antizyme Inhibitor” (PLoS ONE, 2011).

Assays:
[1] = biological target: human ornithine decarboxylase S135N mutant (human) (UniProt P11926)
[2] = biological target: human ornithine decarboxylase N125K/M140K double mutant (human) (UniProt P11926)
[3] = biological target: human ornithine decarboxylase F133C mutant (human) (UniProt P11926)
[4] = biological target: human ornithine decarboxylase M140K mutant (human) (UniProt P11926)
[5] = biological target: human ornithine decarboxylase, wild type (human) (UniProt P11926)
[6] = biological target: human ornithine decarboxylase N126V mutant (human) (UniProt P11926)
[7] = biological target: human ornithine decarboxylase N125K mutant (human) (UniProt P11926)
[8] = biological target: human antizyme inhibitor K140M mutant (human) (UniProt O14977); experiment: AUC; sedimentation velocity, 42,000 rpm; ODC or AZI fixed at 0.3 mg/mL with AZ at 0.015, 0.03, 0.06 or 0.09 mg/mL; data globally fitted with SEDPHAT to the A+B<->AB hetero-association model
[9] = biological target: human ornithine decarboxylase N125K/M140K double mutant (human) (UniProt P11926); experiment: as above
[10] = biological target: human antizyme inhibitor K125N mutant (human) (UniProt O14977); experiment: as above
[11] = biological target: human antizyme inhibitor, wild type (human) (UniProt O14977); experiment: as above
[12] = biological target: human antizyme inhibitor K125N/K140M double mutant (human) (UniProt O14977); experiment: as above
[13] = biological target: human ornithine decarboxylase M140K mutant (human) (UniProt P11926); experiment: as above
[14] = biological target: human ornithine decarboxylase, wild type (human) (UniProt P11926); experiment: as above
[15] = biological target: human ornithine decarboxylase N125K mutant (human) (UniProt P11926); experiment: as above
[16] = biological target: human ornithine decarboxylase N125K/M140K double mutant (human) (UniProt P11926); remark: listed apart in the source
human antizyme (human) = human antizyme (human) (UniProt P54368)
[17] = biological target: the molecule itself; experiment: AUC; sedimentation velocity, 42,000 rpm; continuous size distribution (SEDFIT) of ODC or AZI without AZ

human antizyme inhibitor K125N/K140M double mutant (human), sequence (O14977 whole entry K125N/K140M): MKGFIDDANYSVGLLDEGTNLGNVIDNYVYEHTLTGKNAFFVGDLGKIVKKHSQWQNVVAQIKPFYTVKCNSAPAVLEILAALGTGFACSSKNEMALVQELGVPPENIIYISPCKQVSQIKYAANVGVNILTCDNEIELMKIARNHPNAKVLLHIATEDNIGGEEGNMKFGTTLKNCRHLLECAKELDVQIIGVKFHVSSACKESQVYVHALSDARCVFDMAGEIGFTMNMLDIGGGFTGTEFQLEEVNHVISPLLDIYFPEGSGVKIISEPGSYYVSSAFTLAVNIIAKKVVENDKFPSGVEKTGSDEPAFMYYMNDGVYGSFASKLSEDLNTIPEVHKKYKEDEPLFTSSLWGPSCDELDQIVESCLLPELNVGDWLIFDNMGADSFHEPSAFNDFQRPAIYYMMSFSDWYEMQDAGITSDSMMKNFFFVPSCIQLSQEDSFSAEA
human antizyme inhibitor, wild type (human), sequence (O14977 whole entry): as the sequence (O14977 whole entry K125N/K140M) above, with N125K, M140K counted along it
human antizyme inhibitor K125N mutant (human), sequence (O14977 whole entry K125N): as the sequence (O14977 whole entry K125N/K140M) above, with M140K counted along it
human antizyme inhibitor K140M mutant (human), sequence (O14977 whole entry K140M): as the sequence (O14977 whole entry K125N/K140M) above, with N125K counted along it

human antizyme (from UniProt P54368 1-228) (natural protein)
IC50,AZ: concentration of AZ required for 50% inhibition of ODC enzyme activity (ODC 20 µg/mL) [1]: 490 nM | IC50,AZ: concentration of AZ required for 50% inhibition of ODC enzyme activity (ODC 20 µg/mL) [2]: 80 nM | IC50,AZ: concentration of AZ required for 50% inhibition of ODC enzyme activity (ODC 20 µg/mL) [3]: 450 nM | IC50,AZ: concentration of AZ required for 50% inhibition of ODC enzyme activity (ODC 20 µg/mL) [4]: 130 nM | IC50,AZ: concentration of AZ required for 50% inhibition of ODC enzyme activity (ODC 20 µg/mL) [5]: 250 nM | IC50,AZ: concentration of AZ required for 50% inhibition of ODC enzyme activity (ODC 20 µg/mL) [6]: 440 nM | IC50,AZ: concentration of AZ required for 50% inhibition of ODC enzyme activity (ODC 20 µg/mL) [7]: 100 nM | Kd [8]: 110 nM | Kd [9]: 20 nM | Kd [10]: 160 nM | Kd [11]: 20 nM | Kd [12]: 180 nM | Kd [13]: 140 nM | Kd [14]: 210 nM | Kd [15]: 100 nM | residual enzyme activity of AZ-inhibited ODC N125K/M140K on rescue by high concentrations of AZI (AZ:ODC monomer ratio 4.0) [16]: 20%

human antizyme inhibitor, wild type (from UniProt O14977 1-448) (natural protein)
residual enzyme activity of AZ-inhibited ODC WT (AZ:ODC monomer ratio 4.0) with increasing AZI concentrations (human antizyme (human)): > 90%

B1: human ornithine decarboxylase, wild type (enzyme, UniProt P11926 1-461, looked up)
chain: MNNFGNEEFDCHFLDEGFTAKDILDQKINEVSSSDDKDAFYVADLGDILKKHLRWLKALPRVTPFYAVKCNDSKAIVKTLAATGTGFDCASKTEIQLVQSLGVPPERIIYANPCKQVSQIKYAANNGVQMMTFDSEVELMKVARAHPKAKLVLRIATDDSKAVCRLSVKFGATLRTSRLLLERAKELNIDVVGVSFHVGSGCTDPETFVQAISDARCVFDMGAEVGFSMYLLDIGGGFPGSEDVKLKFEEITGVINPALDKYFPSDSGVRIIAEPGRYYVASAFTLAVNIIAKKIVLKEQTGSDDEDESSEQTFMYYVNDGVYGSFNCILYDHAHVKPLLQKRPKPDEKYYSSSIWGPTCDGLDRIVERCDLPEMHVGDWMLFENMGAYTVAAASTFNGFQRPTIYYVMSGPAWQLMQQFQNPDFPPEVEEQDASTLPVSCAWESGMKRHRAACASASINV
notes: Ornithine decarboxylase (EC 4.1.1.17), human; Homodimer without AZ (S about 6); dissociates to form a heterodimer with AZ; Gene sub-cloned into pQE30; also called ODC; source: E. coli JM109, purified (Ni-NTA Sepharose)
stoichiometry N [17]: 2
